Legend:
[1] = target: T1, Claudin 18.2 (CLDN18.2), expressed on CHOS-CLDN 18.2 / HEK293-CLDN 18.2 / HCC827-CLDN 18.2 cells (human, UniProt P56856-2 1-261); assay: FACS, CHOS-CLDN18.2 cells, 0.313 µg/ml
T1 construct: whole, on cells; The species is not repeated for the CHOS-CLDN 18.2 cells; also called claudin-18A2
Protocol: (§1) The initial concentration of the antibody was 20 μg/ml, it was diluted at 1:4, and incubated at 4° C. for 60 min.

[2] = target: T1, Claudin 18.2 (CLDN18.2), expressed on …; assay: cell-based or functional assay
[3] = target: T1, Claudin 18.2 (CLDN18.2), expressed on …; assay: FACS, CHOS-CLDN18.2 cells, 0.005 µg/ml
Protocol: as §1

[4] = target: T1, Claudin 18.2 (CLDN18.2), expressed on …; assay: FACS, MFI on CHOS-CLDN18.2 over MFI on CHOS-CLDN18.1, 10 µg/ml
Protocol: (§2) The initial concentration of the antibody was 20 μg/mkit was diluted at 1:4, and incubated at 4° C. for 60 min.

[5] = target: T1, Claudin 18.2 (CLDN18.2), expressed on …; assay: FACS, CHOS-CLDN18.2 cells, 5 µg/ml
Protocol: as §1

[6] = target: T1, Claudin 18.2 (CLDN18.2), expressed on …; assay: FACS, CHOS-CLDN18.2 cells
Protocol: as §1

[7] = target: T1, Claudin 18.2 (CLDN18.2), expressed on …; assay: FACS, CHOS-CLDN18.2 cells, 0.020 µg/ml
Protocol: as §1

[8] = target: T1, Claudin 18.2 (CLDN18.2), expressed on …; assay: FACS, CHOS-CLDN18.2 cells, 1.250 µg/ml
Protocol: as §1

[9] = target: T1, Claudin 18.2 (CLDN18.2), expressed on …; assay: FACS, CHOS-CLDN18.2 cells, 0 µg/ml (background)
Protocol: as §1

[10] = target: T1, Claudin 18.2 (CLDN18.2), expressed on …; assay: FACS, CHOS-CLDN18.2 cells, 10 µg/ml
Protocol: as §2

[11] = target: T1, Claudin 18.2 (CLDN18.2), expressed on …; assay: FACS, CHOS-CLDN18.2 cells, 20 µg/ml
Protocol: as §1

[12] = target: T1, Claudin 18.2 (CLDN18.2), expressed on …; assay: FACS, CHOS-CLDN18.2 cells, 0.078 µg/ml
Protocol: as §1

B1: QP14451440 (antibody, human IgG1, kappa, V domains shown)
VH: QVQLVQSGAEVKKPGASVKVSCKASGYAFSSYWMNWVRQAPGQGLEWIGQIYPGNGDTTYNGKFKGRVTMTADKSTSTVYMELSSLRSEDTAVYFCARFVKGNAMDYWGQGTLVTVSS
VL: DIVMTQSPDSLAVSLGERATISCKSSQSLLNSGNQKNYLTWYQQKPGQPPKLLIYWASTRESGVPDRFSGSGSGTDFTLTISSLQAEDVAVYYCQNAYSYPFTFGQGTKLEIKR
notes: Humanized from QP192193; also called QP14401445
FACS reading [1]: 104000
EC50 of killing, ADCC (PBMC, HEK293-CLDN18.2 cells) [2]: 0.0082 µg/mL
Killing percentage, ADCC (PBMC, HEK293-CLDN18.2 cells), 0 µg/ml [2]: 5.43%
Killing percentage, ADCC (PBMC, HEK293-CLDN18.2 cells), 0.0001024 µg/ml [2]: -1.11%
Killing percentage, ADCC (PBMC, HEK293-CLDN18.2 cells), 0.000512 µg/ml [2]: 10%
Killing percentage, ADCC (PBMC, HEK293-CLDN18.2 cells), 0.00256 µg/ml [2]: 10.8%
Killing percentage, ADCC (PBMC, HEK293-CLDN18.2 cells), 0.0128 µg/ml [2]: 28.5%
Killing percentage, ADCC (PBMC, HEK293-CLDN18.2 cells), 0.064 µg/ml [2]: 42.1%
Killing percentage, ADCC (PBMC, HEK293-CLDN18.2 cells), 0.32 µg/ml [2]: 43.7%
Killing percentage, ADCC (PBMC, HEK293-CLDN18.2 cells), 1.6 µg/ml [2]: 37.8%
Killing percentage, ADCC (PBMC, HEK293-CLDN18.2 cells), 8 µg/ml [2]: 42.7%
Killing percentage, ADCC (PBMC, HEK293-CLDN18.2 cells), 40 µg/ml [2]: 47.8%
FACS reading [3]: 4930
CLDN18.2/CLDN18.1 (MFI ratio) [4]: 470
FACS reading [5]: 139000
EC50 [6]: 0.223 µg/mL
max [6]: 169000
FACS reading [7]: 13800
FACS reading [8]: 123000
FACS reading [9]: 732
MFI [10]: 620000
FACS reading [11]: 169000
FACS reading [12]: 35400

Reference: patent publication US20230183352A1 (published 2023)
